What was measured:
Assay in all cases: purified protein
[1] = substrate: C[C@H](N)c1ccccc1; conditions: amino donor, full reaction with 2.5 mM 2-OOA as acceptor, pH 7, 45 °C
[2] = substrate: CCCCCCC(=O)C(=O)O; conditions: amino acceptor, 10 mM 1-PEA as donor, pH 7, 45 °C
[3] = substrate: COC(=O)CC(C)=O; conditions: amino acceptor, 10 mM 1-PEA as donor, pH 7, 45 °C, highest concentration tested 20 mM

B1: CV_TA (Chromobacterium violaceum DSM30191 transaminase; ω-TA) (Chromobacterium violaceum ATCC 12472) (protein)
chain: MQKQRTTSQWRELDAAHHLHPFTDTASLNQAGARVMTRGEGVYLWDSEGNKIIDGMAGLWCVNVGYGRKDFAEAARRQMEELPFYNTFFKTTHPAVVELSSLLAEVTPAGFDRVFYTNSGSESVDTMIRMVRRYWDVQGKPEKKTLIGRWNGYHGSTIGGASLGGMKYMHEQGDLPIPGMAHIEQPWWYKHGKDMTPDEFGVVAARWLEEKILEIGADKVAAFVGEPIQGAGGVIVPPATYWPEIERICRKYDVLLVADEVICGFGRTGEWFGHQHFGFQPDLFTAAKGLSSGYLPIGAVFVGKRVAEGLIAGGDFNHGFTYSGHPVCAAVAHANVAALRDEGIVQRVKDDIGPYMQKRWRETFSRFEHVDDVRGVGMVQAFTLVKNKAKRELFPDFGEIGTLCRDIFFRNNLIMRACGDHIVSAPPLVMTRAEVDEMLAVAERCLEEFEQTLKARGLA
- Km [1]: 2600 ± 630 µM
- Km [2]: 400 ± 150 µM
- kcat [2]: 0.412 ± 0.0733 s⁻¹
- kcat/Km [2]: 1030 M⁻¹ s⁻¹
- Km [3]: 18800 ± 5000 µM
- kcat [3]: 0.155 ± 0.0117 s⁻¹
- kcat/Km [3]: 8.33 M⁻¹ s⁻¹

From article PMC6255834, “Single point mutations reveal amino acid residues important for Chromobacterium violaceum transaminase activity in the production of unnatural amino acids” (Scientific Reports, 2018)
